Patent publication US20240342207, “MODIFIED NUCLEIC ACID COMPOSITIONS AND ASSOCIATED METHODS FOR TREATMENT OF PHENYLKETONURIA” (BOARD OF REGENTS, THE UNIVERSITY OF TEXAS SYSTEM, published 2024)

Legend:
Test in all cases: EMSA; one of 13 of 17 binding mutants; affinity not decreased
Conditions in all cases: tags: His-tag, E. coli; stem-loop
PAH F299C = target: T1, PAH F299C (Homo sapiens, UniProt P00439 P00439:1-452, F299C)
T1 sequence: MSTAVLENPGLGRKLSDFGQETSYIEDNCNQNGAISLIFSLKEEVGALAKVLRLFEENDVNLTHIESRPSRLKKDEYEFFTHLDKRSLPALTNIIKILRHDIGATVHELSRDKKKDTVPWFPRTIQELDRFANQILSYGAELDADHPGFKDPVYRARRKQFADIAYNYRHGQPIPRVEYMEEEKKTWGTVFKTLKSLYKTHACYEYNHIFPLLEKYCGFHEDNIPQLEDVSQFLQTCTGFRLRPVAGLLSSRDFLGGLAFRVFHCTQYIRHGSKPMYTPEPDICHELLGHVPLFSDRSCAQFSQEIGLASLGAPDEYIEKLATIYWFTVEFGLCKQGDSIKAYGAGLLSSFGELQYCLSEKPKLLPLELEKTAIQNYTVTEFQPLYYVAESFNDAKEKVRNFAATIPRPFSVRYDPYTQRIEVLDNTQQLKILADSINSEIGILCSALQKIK

PAH A300S = target: T2, PAH A300S (Homo sapiens, UniProt P00439 P00439:1-452, A300S)
T2 sequence: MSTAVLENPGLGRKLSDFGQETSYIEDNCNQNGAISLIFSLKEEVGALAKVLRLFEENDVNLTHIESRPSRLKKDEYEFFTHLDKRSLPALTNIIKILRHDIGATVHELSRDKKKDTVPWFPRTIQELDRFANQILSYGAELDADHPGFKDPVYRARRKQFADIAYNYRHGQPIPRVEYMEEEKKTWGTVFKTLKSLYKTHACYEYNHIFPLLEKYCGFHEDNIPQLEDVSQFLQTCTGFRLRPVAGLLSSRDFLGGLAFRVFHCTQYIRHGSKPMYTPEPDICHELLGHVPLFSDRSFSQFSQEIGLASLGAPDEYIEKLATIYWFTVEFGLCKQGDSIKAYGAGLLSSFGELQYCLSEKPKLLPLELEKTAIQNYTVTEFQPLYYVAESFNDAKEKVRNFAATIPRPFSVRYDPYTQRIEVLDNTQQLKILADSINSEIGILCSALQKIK

PAH F39L = target: T3, PAH F39L (Homo sapiens, UniProt P00439 P00439:1-452, F39L)
T3 sequence: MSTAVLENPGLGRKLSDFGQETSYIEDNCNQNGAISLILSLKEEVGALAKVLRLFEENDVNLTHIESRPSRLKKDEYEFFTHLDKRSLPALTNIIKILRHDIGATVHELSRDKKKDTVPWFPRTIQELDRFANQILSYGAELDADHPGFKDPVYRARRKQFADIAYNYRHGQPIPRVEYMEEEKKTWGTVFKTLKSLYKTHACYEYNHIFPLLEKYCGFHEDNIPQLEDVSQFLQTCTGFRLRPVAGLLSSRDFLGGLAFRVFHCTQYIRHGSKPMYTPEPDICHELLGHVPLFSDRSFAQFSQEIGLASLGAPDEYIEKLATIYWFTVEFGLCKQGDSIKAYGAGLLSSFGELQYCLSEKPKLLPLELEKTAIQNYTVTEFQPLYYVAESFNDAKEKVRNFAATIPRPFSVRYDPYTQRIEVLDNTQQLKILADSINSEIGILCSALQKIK

PAH F55L = target: T4, PAH F55L (Homo sapiens, UniProt P00439 P00439:1-452, F55L)
T4 sequence: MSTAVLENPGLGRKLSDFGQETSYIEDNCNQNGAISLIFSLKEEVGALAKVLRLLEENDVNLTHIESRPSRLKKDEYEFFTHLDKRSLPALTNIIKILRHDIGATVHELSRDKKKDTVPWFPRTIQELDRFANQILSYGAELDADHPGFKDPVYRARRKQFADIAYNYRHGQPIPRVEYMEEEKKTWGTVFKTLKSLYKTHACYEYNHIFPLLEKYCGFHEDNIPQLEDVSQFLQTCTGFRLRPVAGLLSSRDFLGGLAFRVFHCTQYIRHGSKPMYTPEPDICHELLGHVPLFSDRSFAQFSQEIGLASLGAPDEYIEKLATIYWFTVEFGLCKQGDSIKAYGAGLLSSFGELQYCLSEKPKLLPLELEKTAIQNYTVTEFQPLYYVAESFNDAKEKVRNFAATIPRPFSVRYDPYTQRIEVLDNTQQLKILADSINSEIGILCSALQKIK

PAH I283N = target: T5, PAH I283N (Homo sapiens, UniProt P00439 P00439:1-452, I283N)
T5 sequence: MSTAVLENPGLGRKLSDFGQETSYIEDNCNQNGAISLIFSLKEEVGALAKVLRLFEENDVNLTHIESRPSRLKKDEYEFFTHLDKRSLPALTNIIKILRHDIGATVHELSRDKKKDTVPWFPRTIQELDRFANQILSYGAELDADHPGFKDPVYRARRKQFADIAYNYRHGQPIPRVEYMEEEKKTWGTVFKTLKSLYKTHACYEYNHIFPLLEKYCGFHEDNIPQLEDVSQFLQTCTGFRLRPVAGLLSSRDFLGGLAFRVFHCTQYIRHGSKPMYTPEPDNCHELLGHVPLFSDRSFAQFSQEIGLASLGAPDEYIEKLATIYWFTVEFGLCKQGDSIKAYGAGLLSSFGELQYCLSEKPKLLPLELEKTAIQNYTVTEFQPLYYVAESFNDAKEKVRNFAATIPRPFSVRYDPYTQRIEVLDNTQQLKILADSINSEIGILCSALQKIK

Measured: binding result

B1: HULC 181-201 mimic (ssRNA)
RNA: CAAAAUGCAUAUGUAUCUUUG
binds: PAH F299C | PAH A300S | PAH F39L | PAH F55L | PAH I283N
